The target of the assay is endogenous α-SYN from human postmortem brain (substantia nigra) (human (endogenous in postmortem brain)) (UniProt P37840).

For “endogenous α-SYN from human postmortem brain (substantia nigra) (from UniProt P37840 1-140) (natural protein)”, the percent of detected α-SYN that is oligomeric (PD brain) amounted to 56% and the percent of detected α-SYN that is oligomeric (control brain) turned out to be 23%.

These data come from publication doi:10.1101/188169.
